From paper PMC8754659
pKd: −log10 of the molar value.

What was measured:
[1] = molecular target: BH-REC1 fragment of NmeCas9 (Neisseria meningitides); assay: ITC
[2] = molecular target: NmeCas9 (Neisseria meningitides) (UniProt C9X1G5); assay: ITC
NmeCas9 (Neisseria meningitides), sequence (C9X1G5 whole entry): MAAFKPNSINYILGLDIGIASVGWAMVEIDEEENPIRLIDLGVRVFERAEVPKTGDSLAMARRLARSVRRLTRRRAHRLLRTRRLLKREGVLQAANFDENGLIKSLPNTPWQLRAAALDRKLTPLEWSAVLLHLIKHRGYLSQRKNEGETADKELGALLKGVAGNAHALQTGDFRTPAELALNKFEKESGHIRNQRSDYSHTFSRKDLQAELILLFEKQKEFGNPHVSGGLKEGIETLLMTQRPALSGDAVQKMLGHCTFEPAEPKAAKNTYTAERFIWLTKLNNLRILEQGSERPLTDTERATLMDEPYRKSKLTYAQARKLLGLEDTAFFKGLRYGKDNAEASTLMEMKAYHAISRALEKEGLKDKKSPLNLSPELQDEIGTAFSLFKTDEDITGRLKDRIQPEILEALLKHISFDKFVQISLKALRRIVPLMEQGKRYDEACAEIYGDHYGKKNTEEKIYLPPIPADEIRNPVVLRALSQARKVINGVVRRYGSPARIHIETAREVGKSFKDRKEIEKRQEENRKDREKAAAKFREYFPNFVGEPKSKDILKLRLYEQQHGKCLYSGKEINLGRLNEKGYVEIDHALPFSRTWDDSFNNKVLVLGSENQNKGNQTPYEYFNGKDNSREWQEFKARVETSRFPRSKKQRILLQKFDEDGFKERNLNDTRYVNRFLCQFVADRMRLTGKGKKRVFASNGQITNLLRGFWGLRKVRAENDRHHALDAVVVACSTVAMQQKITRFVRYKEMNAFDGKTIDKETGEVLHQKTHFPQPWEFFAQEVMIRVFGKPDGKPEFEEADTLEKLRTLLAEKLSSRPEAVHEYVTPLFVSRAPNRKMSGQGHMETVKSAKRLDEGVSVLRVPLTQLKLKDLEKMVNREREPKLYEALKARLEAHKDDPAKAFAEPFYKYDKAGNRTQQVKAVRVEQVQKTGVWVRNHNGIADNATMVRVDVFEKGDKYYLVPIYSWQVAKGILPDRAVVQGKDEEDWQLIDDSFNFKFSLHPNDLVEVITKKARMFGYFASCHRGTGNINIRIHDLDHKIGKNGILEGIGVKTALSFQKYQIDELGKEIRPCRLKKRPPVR

Row | Substance | fold reduction of the binding affinity in high salt against 300 mM salt [1] | pKd [2] | stoichiometry N [2] | fold reduction in binding affinity against wild-type AcrIIA17 [1]
1 | AcrIIA17 (natural protein) | 10 fold | 8.30 | 1 | 
2 | AcrIIA17 D81A/E84A mutant (natural protein) |  |  |  | 20 fold
